Two molecules from PMC12529230, “The Lrs14‐Like AbfR1 Homolog From Metallosphaera sedula Is a Nucleoid‐Organizing Protein” (MicrobiologyOpen, 2025) can be followed below.

One data set has as its target T1, AbfR1Ms (Metallosphaera sedula DSM5348, UniProt A4YIR2 1-115).
T1 sequence: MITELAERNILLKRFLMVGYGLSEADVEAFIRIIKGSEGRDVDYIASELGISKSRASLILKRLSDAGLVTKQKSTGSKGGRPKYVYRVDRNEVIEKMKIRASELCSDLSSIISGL
In words: EMSA; apparent; salmon sperm competitor DNA; EMSA: 20 mM Tris-HCl pH 8.0, 50 mM NaCl, 0.4 mM EDTA, 0.1 mM DTT, 1 mM MgCl2, 12.5% glycerol, 25 ug/mL sonicated salmon sperm DNA, 25 min at 37 C; AFM: same buffer, 15 min at 37 C, then NiCl2/HEPES adsorption on mica. Particulars: protein: recombinant; tags: C-terminal His; chain copies: 2; label: 5'-32P on one strand; blunt.

Data set [1] deals with the molecule itself. In words: SEC; Enrich SEC 650 10 x 300 column, 20 mM HEPES, 150 mM NaCl, 1 mM DTT, 5% glycerol, pH 7.5; AbfR1 Ms concentrated to 1.9 mg/mL; MW from a standard curve. (In general: SEC sorts molecules by how far they enter the pores of the column.)

By stoichiometry N is commonly meant the number of molecules, sites or subunits per partner or assembly.

B1: ORF abfR1Sa (dsDNA)
DNA 1: GTCTTTCTGAATCAGAAATAGACACATTTCTAAGGATACTTGAAAGCAAAGAAGGTAAGGATATTGATGCAATATCTGCAGAACTAAAAATTAGTAAAAG
DNA 2: CTTTTACTAATTTTTAGTTCTGCAGATATTGCATCAATATCCTTACCTTCTTTGCTTTCAAGTATCCTTAGAAATGTGTCTATTTCTGATTCAGAAAGAC
Regarding B1, in the data set with AbfR1Ms, the Kd worked out at 546 nM.

B2: AbfR1 Ms (recombinant, C-terminal His-tag) (natural protein, Metallosphaera sedula, UniProt A4YIR2 1-115, looked up)
chain: T1 sequence
notes: 115 amino acids, estimated MW 12.7 kDa; codon-optimized synthetic gene fragment (446 bp) cloned NdeI/XhoI into pET24a; No tag cleavage is described; A disulfide bridge between the two chains is proposed (C105, from an AlphaFold model and DTT sensitivity); also called Lrs14-like AbfR1 homolog from Metallosphaera sedula; HhcR; source: E. coli Rosetta (DE3), pET24a; purified (heat treatment 70°C, …)
For the molecule B2, the “stoichiometry N” value in data set [1] was 2.
